Compound in data set [1]: CC(C)NCCCn1c(Sc2cc3c(cc2I)OCO3)nc2c(N)ncnc21
The data set is described as follows: Competitive inhibition of recombinant wild-type human TRAP1 ATPase activity expressed in Escherichia coli BL21 (DE3) assessed as ratio of substrate Kcat to Km at 5 uM preincubated for 0.5 hrs followed by varying levels of ATP addition and measured after 3 hrs using PiColorLock Gold reagent by colorimetric assay-based Lineweaver-Burk plot analysis (reference value: 10.3 +/- 0.54 10^-5 /s/uM).

Substrate in data set [2]: Nc1ncnc2c1nc(Sc1cc3c(cc1I)OCO3)n2CCCCCCCCCC[P+](c1ccccc1)(c1ccccc1)c1ccccc1
The data set is described as follows: Allosteric modulation of recombinant wild-type human TRAP1 ATPase activity expressed in Escherichia coli BL21 (DE3) assessed as substrate Kcat at 5 uM preincubated for 0.5 hrs followed by varying levels of ATP addition and measured after 3 hrs using PiColorLock Gold reagent by colorimetric assay-based Lineweaver-Burk plot analysis (reference value: 0.87 +/- 0.01 […]).

Compound in data set [3]: CC(C)NCCCn1c(Sc2cc3c(cc2I)OCO3)nc2c(N)ncnc21
The data set is described as follows: Competitive inhibition of recombinant wild-type human TRAP1 ATPase activity expressed in Escherichia coli BL21 (DE3) assessed as substrate Kcat at 5 uM preincubated for 0.5 hrs followed by varying levels of ATP addition and measured after 3 hrs using PiColorLock Gold reagent by colorimetric assay-based Lineweaver-Burk plot analysis (reference value: 0.87 +/- 0.01 […]).

Substrate in data set [4]: Nc1ncnc2c1nc(Sc1cc3c(cc1I)OCO3)n2CCCCCCCCCC[P+](c1ccccc1)(c1ccccc1)c1ccccc1
The data set is described as follows: Allosteric modulation of recombinant wild-type human TRAP1 ATPase activity expressed in Escherichia coli BL21 (DE3) assessed as substrate Km at 5 uM preincubated for 0.5 hrs followed by varying levels of ATP addition and measured after 3 hrs using PiColorLock Gold reagent by colorimetric assay-based Lineweaver-Burk plot analysis (reference value: 84.42 +/- 3.84 uM).

Compound in data set [5]: CC(C)NCCCn1c(Sc2cc3c(cc2I)OCO3)nc2c(N)ncnc21
Description: Competitive inhibition of recombinant wild-type human TRAP1 ATPase activity expressed in Escherichia coli BL21 (DE3) assessed as substrate Km at 5 uM preincubated for 0.5 hrs followed by varying levels of ATP addition and measured after 3 hrs using PiColorLock Gold reagent by colorimetric assay-based Lineweaver-Burk plot analysis (reference value: 84.42 +/- 3.84 uM).

Substrate in data set [6]: Nc1ncnc2c1nc(Sc1cc3c(cc1I)OCO3)n2CCCCCCCCCC[P+](c1ccccc1)(c1ccccc1)c1ccccc1
The data set is described as follows: Allosteric modulation of recombinant wild-type human TRAP1 ATPase activity expressed in Escherichia coli BL21 (DE3) assessed as ratio of substrate Kcat to Km at 5 uM preincubated for 0.5 hrs followed by varying levels of ATP addition and measured after 3 hrs using PiColorLock Gold reagent by colorimetric assay-based Lineweaver-Burk plot analysis (reference value: 10.3 +/- 0.54 10^-5 /s/uM).

B1: Heat shock protein 75 kDa, mitochondrial (Homo sapiens), Q12931 (protein)
chain: MARELRALLLWGRRLRPLLRAPALAAVPGGKPILCPRRTTAQLGPRRNPAWSLQAGRLFSTQTAEDKEEPLHSIISSTESVQGSTSKHEFQAETKKLLDIVARSLYSEKEVFIRELISNASDALEKLRHKLVSDGQALPEMEIHLQTNAEKGTITIQDTGIGMTQEELVSNLGTIARSGSKAFLDALQNQAEASSKIIGQFGVGFYSAFMVADRVEVYSRSAAPGSLGYQWLSDGSGVFEIAEASGVRTGTKIIIHLKSDCKEFSSEARVRDVVTKYSNFVSFPLYLNGRRMNTLQAIWMMDPKDVREWQHEEFYRYVAQAHDKPRYTLHYKTDAPLNIRSIFYVPDMKPSMFDVSRELGSSVALYSRKVLIQTKATDILPKWLRFIRGVVDSEDIPLNLSRELLQESALIRKLRDVLQQRLIKFFIDQSKKDAEKYAKFFEDYGLFMREGIVTATEQEVKEDIAKLLRYESSALPSGQLTSLSEYASRMRAGTRNIYYLCAPNRHLAEHSPYYEAMKKKDTEVLFCFEQFDELTLLHLREFDKKKLISVETDIVVDHYKEEKFEDRSPAAECLSEKETEELMAWMRNVLGSRVTNVKVTLRLDTHPAMVTVLEMGAARHFLRMQQLAKTQEERAQLLQPTLEINPRHALIKKLNQLRASEPGLAQLLVDQIYENAMIAAGLVDDPRAMVGRLNELLVKALERH
With B1, the kcat/Km in data set [1] came out at 0.76 ×10⁻⁵ /s/µM; in data set [6], 4.99 ×10⁻⁵ /s/µM. Also, the kcat turned out to be 2.51 ×10⁻² /s in data set [2] and 0.8 ×10⁻² /s in data set [3]. The Km was determined as 506 µM in data set [4] and 1050 µM in data set [5].

(Values after ChEMBL document CHEMBL4602687, “Dual Binding to Orthosteric and Allosteric Sites Enhances the Anticancer Activity of a TRAP1-Targeting Drug” (J Med Chem, 2020).)
